# Assay results: patent US5597711A, “Factor VIII binding domain of von Willebrand factor” (The Scripps Research Institute, priority 1995, dated 1997)
# How the values were obtained:
# [1] = molecular target: T1, FVIII binding to solid phase vWF (Homo sapiens, UniProt P00451); test: Competitive inhibition assay of FVIII binding to solid phase vWF; conditions: competitive ligand in fluid phase, 0-100 μg in 1 ml
# T1 construct: The purification of FVIII from commercial factor VIII concentrate (Armour Pharmaceutical, Kankakee, IL), by immunoadsorbent chromatography; tissue Armour Pharmaceutical, Kankakee, Ill; host or cells: commercial factor VIII concentrate, both proteins purified in house by immunoadsorbent chromatography
# T1 sequence (P00451 1668-2351 limits assumed): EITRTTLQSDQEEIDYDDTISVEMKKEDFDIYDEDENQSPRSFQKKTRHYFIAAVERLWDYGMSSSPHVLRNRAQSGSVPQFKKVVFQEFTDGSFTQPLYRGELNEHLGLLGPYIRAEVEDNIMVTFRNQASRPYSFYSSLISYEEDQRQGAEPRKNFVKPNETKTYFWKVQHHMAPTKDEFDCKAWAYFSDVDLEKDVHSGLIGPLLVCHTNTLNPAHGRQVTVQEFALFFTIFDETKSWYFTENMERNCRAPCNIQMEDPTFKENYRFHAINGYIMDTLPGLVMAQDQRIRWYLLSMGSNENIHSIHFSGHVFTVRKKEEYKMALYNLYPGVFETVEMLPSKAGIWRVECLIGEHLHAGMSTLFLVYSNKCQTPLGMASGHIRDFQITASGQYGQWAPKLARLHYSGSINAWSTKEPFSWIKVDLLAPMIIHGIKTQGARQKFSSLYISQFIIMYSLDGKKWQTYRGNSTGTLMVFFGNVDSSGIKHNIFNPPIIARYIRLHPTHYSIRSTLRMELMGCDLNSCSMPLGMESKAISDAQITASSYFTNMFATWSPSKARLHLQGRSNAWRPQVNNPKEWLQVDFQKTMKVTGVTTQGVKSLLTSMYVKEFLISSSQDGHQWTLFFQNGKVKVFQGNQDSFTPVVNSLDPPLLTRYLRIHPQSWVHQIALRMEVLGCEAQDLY
# T1 sequence (P00451 20-759 partner limits assumed): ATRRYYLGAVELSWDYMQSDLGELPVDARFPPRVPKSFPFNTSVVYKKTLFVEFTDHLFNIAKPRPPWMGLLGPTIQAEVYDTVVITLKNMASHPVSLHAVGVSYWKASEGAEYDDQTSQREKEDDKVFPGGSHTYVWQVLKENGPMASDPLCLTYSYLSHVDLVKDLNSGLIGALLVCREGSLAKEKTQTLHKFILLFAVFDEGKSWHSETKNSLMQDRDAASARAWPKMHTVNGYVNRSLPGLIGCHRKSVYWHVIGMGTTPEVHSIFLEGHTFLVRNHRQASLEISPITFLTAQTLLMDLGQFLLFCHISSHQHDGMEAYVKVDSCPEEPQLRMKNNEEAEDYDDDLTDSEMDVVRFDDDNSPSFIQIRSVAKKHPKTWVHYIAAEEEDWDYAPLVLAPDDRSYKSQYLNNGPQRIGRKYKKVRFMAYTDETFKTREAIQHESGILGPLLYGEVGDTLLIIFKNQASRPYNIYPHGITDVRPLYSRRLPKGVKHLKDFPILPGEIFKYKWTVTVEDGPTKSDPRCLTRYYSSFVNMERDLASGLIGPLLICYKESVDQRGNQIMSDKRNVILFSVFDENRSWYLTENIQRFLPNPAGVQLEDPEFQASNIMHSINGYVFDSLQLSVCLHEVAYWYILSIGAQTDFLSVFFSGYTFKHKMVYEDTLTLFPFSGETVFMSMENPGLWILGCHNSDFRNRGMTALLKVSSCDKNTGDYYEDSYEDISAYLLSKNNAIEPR
# Method: (§1) Competitive inhibition assay of FVIII binding to solid phase vWF: 50 μg of whole unreduced vWF in 1 ml of 0.01M PO4, 0.15M Nacl, 0.02% NaN3, pH 7.3 (PBS), was incubated with three 1/4 inch in diameter polystyrene beads (Pierce Chemical Company, Rockford, Ill.) per 16 mm in diameter tissue culture well for 2 hours at room temperature. The solution was removed and the wells and the beads were then blocked with 1 ml of PBS containing 0.05% Tween-20 and 3% human serum albumin for 1 hour at room temperature. The wells and the beads were stored in the blocking solution at 4° C. for 16 hours to 10 days before use. The wells and beads were then washed ×3 with PBS. 0.05% Tween-20 and incubated for 11/2 hours at room temperature with 1.3 μg of purified FVIII and 0-100 μg of the competitive ligand in 1 ml of 0.05M imidazole, 0.15M Nacl, 0.02% NaN3, pH 7.0, 3 mM CaCl. The beads then were washed ×5 with PBS 0.05% Tween-20 and incubated for 11/2 hour at room temperature with 1.5×10^6 cpm of ^125 I-monoclonal anti-FVIII antibody C2 (specific activity 3.8×10^9 cpm/mg), in 1 ml of PBS 0.05% Tween-20 containing 0.5% bovine gamma globulin. After incubation, the wells and beads were washed with PBS 0.05% Tween-20×2. The beads were then transferred to clean wells and washed an additional four times and separately counted. […]
# purified FVIII [2] = molecular target: T2, purified FVIII (Homo sapiens, UniProt P00451); test: Crossed immunoelectrophoresis: complex formation of vWF or vWF fragments with FVIII; type: binding; conditions: co-precipitation of 125I-labeled monoclonal anti-FVIII antibody
# T2 construct: The purification of FVIII from commercial factor VIII concentrate (Armour Pharmaceutical, Kankakee, IL), by immunoadsorbent chromatography; tissue Armour Pharmaceutical, Kankakee, IL; host or cells: commercial factor VIII concentrate, purified in house by immunoadsorbent chromatography
# T2 sequence (P00451 1668-2351 limits assumed): T1 sequence (P00451 1668-2351 limits assumed)
# T2 sequence (P00451 20-759 partner limits assumed): T1 sequence (P00451 20-759 partner limits assumed)
# Method: Two dimensional crossed immunoelectrophoresis of vWF was performed as described in Zimmerman et al., Immunoassays: Clinical Laboratory Techniques for the 1980's, pp. 339-349, Alan R. Liss, Inc., New York (1980), with the following modifications. Agarose was poured in a 1.5 cm strip at the bottom of a 10.2 cm×8.3 cm piece of Gelbond (FMC Corporation, Rockland, Me.). Purified vWF or fragments of vWF, FVIII, and ^125 I labeled monoclonal anti-FVIII antibody were mixed in the sample well and electrophoresed. A second gel containing 125-250 μl of rabbit serum containing polyclonal anti-vWF antibodies was then poured and the second dimension was electrophoresed at right angles to the first dimension. Autoradiographs were made of the gels and compared to Coomassie brilliant blue staining of the gels.
# vWF-FVIII complex = molecular target: T3, vWF-FVIII complex (Homo sapiens, UniProt P00451); test: Dissociation of FVIII from vWF immobilized on polystyrene beads by washing; type: binding
# T3 construct: The purification of FVIII from commercial factor VIII concentrate (Armour Pharmaceutical, Kankakee, IL), by immunoadsorbent chromatography; tissue Armour Pharmaceutical, Kankakee, Ill; host or cells: commercial factor VIII concentrate, both proteins purified in house by immunoadsorbent chromatography
# T3 sequence (P00451 1668-2351 limits assumed): T1 sequence (P00451 1668-2351 limits assumed)
# T3 sequence (P00451 20-759 partner limits assumed): T1 sequence (P00451 20-759 partner limits assumed)
# Method: Competitive inhibition assay of FVIII binding to solid phase vWF: 50 μg of whole unreduced vWF in 1 ml of 0.01M PO4, 0.15M Nacl, 0.02% NaN3, pH 7.3 (PBS), was incubated with three 1/4 inch in diameter polystyrene beads (Pierce Chemical Company, Rockford, Ill.) per 16 mm in diameter tissue culture well for 2 hours at room temperature. The solution was removed and the wells and the beads were then blocked with 1 ml of PBS containing 0.05% Tween-20 and 3% human serum albumin for 1 hour at room temperature. The wells and the beads were stored in the blocking solution at 4° C. for 16 hours to 10 days before use. The wells and beads were then washed ×3 with PBS. 0.05% Tween-20 and incubated for 11/2 hours at room temperature with 1.3 μg of purified FVIII and 0-100 μg of the competitive ligand in 1 ml of 0.05M imidazole, 0.15M Nacl, 0.02% NaN3, pH 7.0, 3 mM CaCl. The beads then were washed ×5 with PBS 0.05% Tween-20 and incubated for 11/2 hour at room temperature with 1.5×10^6 cpm of ^125 I-monoclonal anti-FVIII antibody C2 (specific activity 3.8×10^9 cpm/mg), in 1 ml of PBS 0.05% Tween-20 containing 0.5% bovine gamma globulin. After incubation, the wells and beads were washed with PBS 0.05% Tween-20×2. The beads were then transferred to clean wells and washed an additional four times and separately counted.
# 54, 1093-1094 (1974), 10-20 mM EDTA according to Tran et al., Thromb. Haemostas. 50, 547-551 (1983) or 1-1.5M Nacl according to Weiss et al., Thromb. Diath. Haemorrh. 27, 212-219 (1972).
# purified FVIII [3] = molecular target: T2, purified FVIII; test: Binding of purified FVIII to vWF or SP fragment III immobilized on polystyrene beads; conditions: protein adsorbed on polystyrene beads; detected with 125I-labeled monoclonal anti-FVIII antibody
# Method: as §1
compound,measurement,setting,value
Reduced and alkylated vWF: vWF after reduction and alkylation,inhibition of FVIII binding to immobilized vWF (in words),[1],no inhibitory effect
same,complex formation with FVIII,purified FVIII [2],unable to bind FVIII
O=C(O)CN(CCN(CC(=O)O)CC(=O)O)CC(=O)O [EDTA],dissociation of FVIII from vWF,vWF-FVIII complex; five washings with imidazole buffered saline containing 20 mM EDTA,66 ±5%
vWF: purified von Willebrand factor from commercial factor VIII concentrate,inhibition of FVIII binding to immobilized vWF (in words),[1],completely inhibit
same,complex formation with FVIII,purified FVIII [2],demonstrated complex formation
same,binding of purified FVIII to the immobilized protein,purified FVIII [3],bound
[Ca+2].[Cl-].[Cl-] [CaCl2],dissociation of FVIII from vWF,vWF-FVIII complex; five washings with imidazole buffered saline containing 3 mM CaCl2,no FVIII dissociation
same,dissociation of FVIII from vWF,vWF-FVIII complex; five washings with imidazole buffered saline containing 0.25M CaCl2 at 37° C.,70 ±4%
[Cl-].[Na+] [Nacl],dissociation of FVIII from vWF,vWF-FVIII complex; five washings with imidazole buffer containing 1.5M Nacl,86 ±1%
